From article PMC11058611, “Characterization of a novel GH30 non-specific endoxylanase AcXyn30B from Acetivibrio clariflavus” (Applied Microbiology and Biotechnology, 2024)

Assays:
purified protein [1] = substrate: O=[N+]([O-])c1ccc(O[C@@H]2OC[C@@H](O[C@@H]3OC[C@@H](O[C@@H]4OC[C@@H](O)[C@H](O)[C@H]4O)[C@H](O)[C@H]3O)[C@H](O)[C@H]2O)cc1; assay: purified protein; type: biochemical, Acetivibrio clariflavus; conditions: 50 mM sodium phosphate buffer, pH 6, 40 °C, 0.05–1 mM substrate
purified protein [2] = substrate: O=[N+]([O-])c1ccc(O[C@@H]2OC[C@@H](O[C@@H]3OC[C@@H](O)[C@H](O)[C@H]3O)[C@H](O)[C@H]2O)cc1; assay: purified protein; type: biochemical, Acetivibrio clariflavus; conditions: 50 mM sodium phosphate buffer, pH 6, 40 °C, 0.05–1 mM substrate

B1: AcXyn30B (Acetivibrio clariflavus DSM 19732) (protein)
chain: SYTASVDVNTTYQTLEGFGAAIAWYNDYLTTHPNKNDLYRILFYDSGLDILRLRNQYRNSNNFGYDDMEIVKYGKIMNPNLKVLLSSWSPPSDLKRNGVMNGGTLAKENGSFVYEKFADYWYNSLVAYRAKGIIPDYISIQNEPEYESGDWETCIFRETETSEYPSYAKALDAVYEKIKDLPDMPKILGVESAGIMNNTVQNYARYMDLSKVYGIAHHLYNGGDPYNPDSFNDIFRSLARDFADKPLFMTEYDYGTPFTTAELIHNSLVVEGVSGYFYWDLIWENSQRPLVAIEVPRNPEQWTTKEGYIISDFYYIMQQFAKFTDPGYKRVDASVSSNDIKVSAFVSPDKSKLTMIFINKGYSEHSVALDLKGYSSNKSIIYRTLPEGNERFKKVGSLFGNTVTLPARSVVTVALGVDDEEQIPPQLPTPTPKPESRSAYDIIQAEDYNEMYGIQCETIADDGNKNVAYIENGDYILFKGVDFGTGATGFEASVASAESGGAIEIRLDELYGTTVVKIPVSGTGDWHNYVTVKADIPEIKGKHDLYLVFTGGGGYLFNIDWFVFTGGTVENPVPEVIYGDVNGDGDFNSIDYGYLKMYLLGQIKEFPSKDGMIAADVNGDGTVNSIDYAYMKMRLLGQISKFPVE
notes: purchased from NZYTech (CZ0917); full-length 673 aa: signal peptide 28 aa, GH30 29-446, CBM6 469-593, dockerin 602-673
B1 was tested, and the Km (purified protein [1]) was 230 µM, the kcat (purified protein [1]) was 10.4 s⁻¹ and the kcat/Km (purified protein [1]) was 56100 M⁻¹ s⁻¹. The Km (purified protein [2]) was 210 µM, the kcat (purified protein [2]) was 7.4 s⁻¹ and the kcat/Km (purified protein [2]) was 34900 M⁻¹ s⁻¹.
